Assay results reported in patent US20060240487A1 (published 2006).

How the values were obtained:
[1] = target: T1, biotinylated mature GDF-8 dimer (human, UniProt O14793 267-375, biotin on amine groups (lysine residues and/or amino termini); biotin:GDF-8 molar ratio between 0:1 and 3:1); test: ELISA standard curve parameters of the rat serum experiment; biotinylated GDF-8 on streptavidin plate
T1 construct: Captured on streptavidin-coated plates; also called Biotinylated GDF-8; biotinylated mature GDF-8 protein

[2] = target: T1, biotinylated mature GDF-8 dimer; test: ELISA standard curve, 4-parameter logistic fit; c = concentration resulting in signal at approximately midpoint between a and d; biotinylated GDF-8 on streptavidin plate
Experimental: To detect MYO-029 in a human serum sample, an ELISA was performed as follows. Streptavidin was adsorbed by first adding streptavidin coating solution (100 μL/well) (5 μg/mL ImmunoPure streptavidin (Pierce) in 0.1 M Carbonate/Bicarbonate buffer, pH 9.6) to the wells of a 96 well plate (high binding flat-bottom microtiter) (Costar, Cat. No. 3590). The plate was covered with sealing film and incubated at 2-8° C. overnight. Using an automatic plate washer, the plate was washed four times (4×) with THST buffer (300 μL/well) (50 mM Tris-HCl, pH 8.0, containing 1.0 mM glycine, 0.5 M NaCl, and 0.05% v/v/ Tween 20® (J. T. Baker)), reversing the orientation of the plate after the second wash. To block, 200 μL of blocking buffer (1% bovine albumin (Sigma), 0.02% sodium azide in PBS (Dulbeccos)) was added to each well. The plate was covered with sealing film and incubated for 1-2 hours at room temperature and then washed as above. […]
A MYO-029 working calibrator solution was prepared of 1080 ng/mL MYO-029 in normal human serum (Bioreclamation, Inc.) The 1080 ng/mL stock was fist diluted 8-fold in assay buffer (THST buffer+4% nonfat dry milk), and then a series of 1.5 fold dilutions of the resulting 135 ng/mL standard were prepared in THST+4% nonfat dry milk+12.5% normal human serum to yield the calibration standard concentrations. […] For human serum, the minimum dilution determined was 1:8. […]

EC50 [1]: 0.0587 µg/mL
EC50 [2]: 0.0728 µg/mL
B1: MYO-029 (antibody, V domains shown)
VH: QVQLVQSGAEVKKPGASVKVSCKASGYTFTSYYMHWVRQAPGQGLEWMGIINPSGGSTSYAQKFQGRVTMTRDTSTSTVYMELSSLRSEDTAVYYCARDENWGFDPWGQGTLVTVSS
VL: SYELTQPPSVSVSPGQTATITCSGHALGDKFVSWYQQGSGQSPVLVIYDDTQRPSGIPGRFSGSNSGNTATLTISGTQAMDEADYFCQAWDSSFVFGGGTKVTVL
notes: also called fully human antibody
